These results are taken from article PMC9368766 (2022).

The target in experiment [1] is T-Fc. In words: BLI; deglycosylated FGFR1-Fc. (Biolayer interferometry detects binding as a change in optical thickness at a sensor tip.)
The target in experiment [2] is KCK-FGF1.E (UniProt P05230). Briefly: BLI; deglycosylated FGFR1-Fc.
The target of experiment [3] is KCK-FGF1.E (UniProt P05230). In words: BLI.
For experiment [4], the target named is T-Fc. In words: BLI.

B1: de-glycosylated FGFR1-Fc (Fc fusion)
chain: RPSPTLPEQAQPWGAPVEVESFLVHPGDLLQLRCRLRDDVQSINWLRDGVQLAESNRTRITGEEVEVQDSVPADSGLYACVTSSPSGSDTTYFSVNVSDALPSSEDDDDDDDSSSEEKETDNTKPNRMPVAPYWTSPEKMEKKLHAVPAAKTVKFKCPSSGTPNPTLRWLKNGKEFKPDHRIGGYKVRYATWSIIMDSVVPSDKGNYTCIVENEYGSINHTYQLDVVERSPHRPILQAGLPANKTVALGSNVEFMCKVYSDPQPHIQWLKHIEVNGSKIGPDNLPYVQILKTAGVNTTDKEMEVLHLRNVSFEDAGEYTCLAGNSIGLSHHSAWLTVLEALEERPAVMTSPLYLE
modifications: N-glycans enzymatically removed with PNGase F
On to B1, for which the Kd with T-Fc [1] came out at 0.669 nM. Also, the koff in the experiment with T-Fc [1] was found to be 0.000448 s⁻¹; in the experiment with KCK-FGF1.E [2], 0.00222 s⁻¹.

B2: Fully glycosylated extracellular domain of FGFR1 fused to the Fc fragment of human IgG1: FGFR1 IIIc (FGFR1-Fc) (Fc fusion)
chain: RPSPTLPEQAQPWGAPVEVESFLVHPGDLLQLRCRLRDDVQSINWLRDGVQLAESNRTRITGEEVEVQDSVPADSGLYACVTSSPSGSDTTYFSVNVSDALPSSEDDDDDDDSSSEEKETDNTKPNRMPVAPYWTSPEKMEKKLHAVPAAKTVKFKCPSSGTPNPTLRWLKNGKEFKPDHRIGGYKVRYATWSIIMDSVVPSDKGNYTCIVENEYGSINHTYQLDVVERSPHRPILQAGLPANKTVALGSNVEFMCKVYSDPQPHIQWLKHIEVNGSKIGPDNLPYVQILKTAGVNTTDKEMEVLHLRNVSFEDAGEYTCLAGNSIGLSHHSAWLTVLEALEERPAVMTSPLYLE
modifications: N-glycosylated (fully glycosylated)
On to B2, for which, in the experiment with KCK-FGF1.E [3], binding was put at a Kd of 3.19 nM and the koff came to 0.000304 s⁻¹. Moreover, in the experiment with T-Fc [4], binding was put at a Kd of 0.246 nM.

The Kd is the free concentration of one partner at which half of the binding sites on the other are occupied at equilibrium, for simple one-to-one binding. Higher therefore signals a looser complex. What is called koff is a measure of how fast the partners let go of each other. Low values mean a long-lived complex, high ones a short-lived complex.
